Test results from patent publication US20230287120A1 (ALLOGENE THERAPEUTICS, published 2023).
Residue numbers refer to the chain shown, from its start.

Tests used:
[1] = molecular target: T1, human DLL3 extracellular domain (ECD) with C-terminal 8xHis tag and Avi tag (human, UniProt Q9NYJ7 27-492); experiment: SPR (Biacore), 37 C; IgG captured on chip, human DLL3 ECD in solution; 1:1 Langmuir fit
T1 construct: extracellular domain; Expressed in Expi293, purified by IMAC and SEC; also called huDLL3; not shown: Avi tag
T1 sequence: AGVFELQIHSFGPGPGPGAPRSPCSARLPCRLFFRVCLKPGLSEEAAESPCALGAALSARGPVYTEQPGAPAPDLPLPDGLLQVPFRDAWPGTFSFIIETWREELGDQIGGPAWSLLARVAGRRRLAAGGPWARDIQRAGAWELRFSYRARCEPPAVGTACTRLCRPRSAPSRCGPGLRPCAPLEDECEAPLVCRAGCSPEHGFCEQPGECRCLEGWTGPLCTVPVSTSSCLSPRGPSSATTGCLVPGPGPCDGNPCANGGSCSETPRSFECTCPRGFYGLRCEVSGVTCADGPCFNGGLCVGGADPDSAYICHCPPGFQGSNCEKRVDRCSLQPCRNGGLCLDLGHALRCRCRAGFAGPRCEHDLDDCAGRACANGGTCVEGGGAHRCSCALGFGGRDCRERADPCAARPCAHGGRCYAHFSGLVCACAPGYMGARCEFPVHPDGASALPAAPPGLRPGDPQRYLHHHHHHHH

[2] = molecular target: T1, human DLL3 extracellular domain (ECD) …; experiment: SPR (Biacore), 37 C; scFv-Fc captured on chip, human DLL3 ECD in solution; 1:1 Langmuir fit
Procedure: The antibody binding kinetics were determined by surface plasmon resonance (Biacore™ surface plasmon resonance (SPR) system, GE Healthcare Bio-Sciences, Pittsburgh Pa.). The antibodies diluted in HBS-T+ running buffer (0.01 M HEPES pH 7.4, 0.15 M NaCl, 0.05% v/v Tween20, 1 mg/mL BSA) were captured on a CM4 chip immobilized with an antibody specific for the anti-DLL3 antibody constant domains. Purified DLL3 was serially diluted into HBS-T+, injected for 2 min at 30 uL/min and a dissociation time of 10 min then the surface regenerated with either 10 mM Glycine-HCl pH 1.7 or phosphoric acid between injections. […] Equilibrium dissociation constant (Kd) values are calculated as koff/kₒₙ.

[3] = molecular target: T2, mouse DLL3 extracellular domain (ECD) with C-terminal 8xHis tag and Avi tag (mouse, UniProt O88516 33-490); experiment: SPR (Biacore), 37 C; scFv-Fc captured on chip, mouse DLL3 ECD in solution; 1:1 Langmuir fit
T2 construct: extracellular domain; Expressed in Expi293, purified by IMAC and SEC; also called msDLL3; not shown: Avi tag
T2 sequence: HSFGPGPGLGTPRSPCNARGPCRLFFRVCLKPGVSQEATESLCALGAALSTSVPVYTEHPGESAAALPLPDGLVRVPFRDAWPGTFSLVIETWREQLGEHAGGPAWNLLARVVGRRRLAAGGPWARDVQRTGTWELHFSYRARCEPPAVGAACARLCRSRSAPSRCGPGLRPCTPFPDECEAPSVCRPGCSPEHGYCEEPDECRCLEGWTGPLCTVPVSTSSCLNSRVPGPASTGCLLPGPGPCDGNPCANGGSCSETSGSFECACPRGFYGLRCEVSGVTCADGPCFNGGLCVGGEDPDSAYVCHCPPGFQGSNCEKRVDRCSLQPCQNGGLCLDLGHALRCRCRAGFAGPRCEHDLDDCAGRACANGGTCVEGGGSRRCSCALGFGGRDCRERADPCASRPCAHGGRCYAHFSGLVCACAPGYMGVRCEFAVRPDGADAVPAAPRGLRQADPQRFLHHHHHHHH

B1: anti-DLL3 antibody 2D3 (IgG) (antibody, V domains shown)
VH: QVQLQESGPGLVKPSETLSLTCTVSDNSISNYYWSWIRQPPGKGLEWIAYIYYSGTTNYNPSLKSRVTISLDTSKNQFSLKLSSVTAADTAVYYCARLFNWGFAFDIWGQGTMVTVSS
VL: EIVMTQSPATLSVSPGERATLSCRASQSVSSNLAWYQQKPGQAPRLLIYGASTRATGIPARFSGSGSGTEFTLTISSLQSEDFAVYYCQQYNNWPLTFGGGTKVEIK
notes: Full-length monoclonal antibody (IgG)
[1]
  Kd: 5.47 nM

B2: 6D8 scFv-Fc fusion (Fc fusion, not shown: a dimerising Fc or GST)
scFv: QITLKESGPTLVKPTQTLTLTCTFSGFSLSTRGVGVGWIRQPPGKALEWLALIYWNDDKRYSPSLQTRLTITKDTPKNQVVLTMTNMDPVDTATYYCARSNWGNWYFALWGRGTLVTVSSGGGGSGGGGSGGGGSGGGGSEIVLTQSPATLSLSPGERATLSCRASQSVSSYLAWYQQKPGQAPRLLIYDAFYRATGIPARFSGSGSGTDFTLTISSLEPEDFAVYYCQHRSNWPITFGQGTRLEIK
notes: scFv-Fc expressed in Expi293
[2]
  Kd: < 1.2 nM
[3]
  Kd: < 1.5 nM

B3: anti-DLL3 antibody 7F9 (IgG) (antibody, V domains shown)
VH: EVQLVESGGGLVQPGGSLRLSCAASGFTFSSHDMHWVRQATGKGLEWVSAIGIAGDTYYSGSVKGRFTISRENAKNSLYLQMNSLRAGDTAVYYCARANWGEGAFDIWGQGTMVTVSS
VL: DIQMTQSPSSLSASVGDRVTITCRASQGISDYLAWYQQKPGKIPKLLIYAASTLQSGVPSRFSGSGSGTDFTLTISSLQPEDVATYYCQKYNSVPLTFGGGTKVEIK
notes: as for B1
[1]
  Kd: 12.7 nM

B4: 7F9 scFv-Fc fusion (Fc fusion, not shown: a dimerising Fc or GST)
scFv: EVQLVESGGGLVQPGGSLRLSCAASGFTFSSHDMHWVRQATGKGLEWVSAIGIAGDTYYSGSVKGRFTISRENAKNSLYLQMNSLRAGDTAVYYCARANWGEGAFDIWGQGTMVTVSSGGGGSGGGGSGGGGSGGGGSDIQMTQSPSSLSASVGDRVTITCRASQGISDYLAWYQQKPGKIPKLLIYAASTLQSGVPSRFSGSGSGTDFTLTISSLQPEDVATYYCQKYNSVPLTFGGGTKVEIK
notes: scFv-Fc expressed in Expi293
[2]
  Kd: 27.3 nM

B5: anti-DLL3 antibody 8E11 (IgG) (antibody, V domains shown)
VH: B1 VH with D26G, N27D, S35T, A49G, Y59S, I69V, N76S, K81N, L98V, W101R
VL: EIVLTQSPGTLSLSPGERATLSCRASQRISNTYLAWYQQKPGQAPRLLIYGASSRATGIPDRFSGSGSGTDFTLTISRLEPEDFAAYYCQQYDTSPLTFGGGTKVEIK
notes: as for B1
[1]
  Kd: 5.86 nM

B6: anti-DLL3 antibody 9D3 (IgG) (antibody, V domains shown)
VH: B1 VH with N27D, A49G, Y52F, Y59H, V67L, T73K, S74A, K81R, L98V
VL: B5 VL with N31R, S64T, A86V, D93G, K108N
notes: as for B1
[1]
  Kd: 21.1 nM

B7: anti-DLL3 antibody 2G1 (IgG) (antibody, V domains shown)
VH: QLQLQESGPGLVKPSETLSLTCTVSGGSISSSSYYWGWIRQPPGKGLEWIGSIYYSGNIYHNPSLKSRVSISVDTSKNQFSLRLSSVTAADTAVYYCAREIIVGATHFDYWGQGTLVTVSS
VL: AIQMTQSPSSLSASVGDRVTITCRASQGIRNDLGWYQQKPGKAPELLIYAASSLQSGVPSRFSGSGSGTDFTLTISSLQPEDFATYYCLQDYNYPLTFGPGTKVDIK
notes: as for B1
[1]
  Kd: 38.1 nM

B8: anti-DLL3 antibody 3F2 (IgG) (antibody, V domains shown)
VH: QVQLQESGPGLVKPSGTLSLTCAVSGGSISSNNWWSWVRQPPGKGLEWIGDIHHSGSTNYKPSLKSRVTISVDKSKNQFSLNLISVTAADTAVYYCAREAGGYFDYWGQGILVTVSS
VL: DIQMTQSPSTLSASVGDRVTITCRASQSISSWLAWYQQKPGKAPKLLISKASSLESGVPSRFSGSGSGPEFTLTISSLQPADFATYYCQQYNSYSTFGQGTKLEIK
notes: as for B1
[1]
  Kd: 14.8 nM

B9: anti-DLL3 antibody 17A2 (IgG) (antibody, V domains shown)
VH: QVQLQESGPGLVKPSGTLSLTCVVFGDSISSSNWWSWVRQPPGKGLEWIGEVFHSGSTNYNPSLKSRVTISVDKSKNQFSLKLSSVTAADTAVYYCARAAVAGALDYWGQGTLVTVSS
VL: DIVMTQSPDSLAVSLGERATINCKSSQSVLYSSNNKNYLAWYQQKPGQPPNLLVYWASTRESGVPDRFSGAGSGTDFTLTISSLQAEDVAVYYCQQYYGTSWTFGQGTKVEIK
notes: as for B1
[1]
  Kd: 5.49 nM

B10: anti-DLL3 antibody 6F8 (IgG) (antibody, V domains shown)
VH: QVQLVQSGAEVKKPGSSVKVSCKASGGTFTNYCISWVRQAPGQGLEWMGGIIPIFGTTNYAQTFQGRVTITADKSTSTAYMELSSLRSEDTAVYYCARDNGDRYYYDMDVWGQGTTVTVSS
VL: QSVLTQPPSVSAAPGQKVTISCSGSSSNIGNNYVSWYQQLPGTAPKLLIYDNNKRPSGIPDRFSGSKSGTSATLGITGLQTGDEADYYCGTWDSSLSAVVFGGGTKLTVL
[1]
  Kd: 26.5 nM

B11: 6F8 scFv-Fc fusion (Fc fusion, not shown: a dimerising Fc or GST)
scFv: QVQLVQSGAEVKKPGSSVKVSCKASGGTFTNYCISWVRQAPGQGLEWMGGIIPIFGTTNYAQTFQGRVTITADKSTSTAYMELSSLRSEDTAVYYCARDNGDRYYYDMDVWGQGTTVTVSSGGGGSGGGGSGGGGSGGGGSQSVLTQPPSVSAAPGQKVTISCSGSSSNIGNNYVSWYQQLPGTAPKLLIYDNNKRPSGIPDRFSGSKSGTSATLGITGLQTGDEADYYCGTWDSSLSAVVFGGGTKLTVL
notes: scFv-Fc expressed in Expi293
[2]
  Kd: 40.8 nM
[3]
  Kd: 19.3 nM

B12: 9H12-K scFv-Fc fusion (Fc fusion, not shown: a dimerising Fc or GST)
scFv: QVQLVQSGAEVKKPGASVKVSCKASGYTFTGYSIHWVRQAPGQGLEWMGWINPNSGGTFYAQKFQGRVTMTRDTSISTVYMELSRLRSDDTAVYYCARDGWGDYYYYGLDVWGQGTTVTVSLGGGGSGGGGSGGGGSGGGGSDIQMTQSPSSVSASVGDRVTITCRASQDISSWLAWYQQKPGKAPKLLIYTASSLQGGVPSRFSGSGSGTDFTLTISSLQPEDLATYSCQQANVFPYTFGQGTKLEIK
notes: scFv-Fc expressed in Expi293
[2]
  Kd: 186 nM

B13: anti-DLL3 antibody 4H8 (IgG) (antibody, V domains shown)
VH: QVQLQQSGPGLVKPSQTLSLTCAISGDSVSSNSATWNWIRQSPSRGLEWLGRTYYRSKWYDDYAVSVKSRITINPDTSKNHLSLHLNSVTPEDTAVYYCAGGGLVGAPDGFDVWGQGTMVTVSS
VL: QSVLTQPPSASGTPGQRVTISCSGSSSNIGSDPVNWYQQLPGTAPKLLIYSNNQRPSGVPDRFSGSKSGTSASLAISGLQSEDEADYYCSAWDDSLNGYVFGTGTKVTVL
notes: as for B1
[1]
  Kd: 18.5 nM

B14: anti-DLL3 antibody 11A3 (IgG) (antibody, V domains shown)
VH: QVQLQESGPGLVKPSETLSLTCTVSSDSISNYYWSWIRQPPGKGLEWISYIYYSGITNYNPSLKSRVTISVDTSKNQFSLKLSSVTAADTAVYYCARITVTGFYFDYWGQGTLVTVSS
VL: B5 VL with R28S, N31R, T32S, L47H, T73I, A86V
notes: as for B1
[1]
  Kd: 4.8 nM

B15: anti-DLL3 antibody 2A6.C5 (IgG) (antibody, V domains shown)
VH: B1 VH with D26N, N27V, N31S, A49G, I69M, L71V, Y94F, F99S, V116F
VL: EIVLTQSPGTLSLSPGERATLSCRASQTISSSYLAWYQQKPGQAPRLLIYGASSRATGIPDRFSGSGSGTEFTLTISRLEPEDFAVYYCQQYGWSPITFGQGTRLEIK
notes: as for B1
[1]
  Kd: 23.4 nM
